# Results published in patent publication US12060433B2, “CD73 inhibitor and A2A/A2B adenosine receptor inhibitor combination therapy” (Incyte Corporation, priority 2020, dated 2024).
# T1: cell surface CD73 on MDA-MB-231 cells (Homo sapiens, UniProt P21589)
# T1 construct: endogenous in cells; host or cells: MDA-MB-231
# T1 sequence (P21589 27-549): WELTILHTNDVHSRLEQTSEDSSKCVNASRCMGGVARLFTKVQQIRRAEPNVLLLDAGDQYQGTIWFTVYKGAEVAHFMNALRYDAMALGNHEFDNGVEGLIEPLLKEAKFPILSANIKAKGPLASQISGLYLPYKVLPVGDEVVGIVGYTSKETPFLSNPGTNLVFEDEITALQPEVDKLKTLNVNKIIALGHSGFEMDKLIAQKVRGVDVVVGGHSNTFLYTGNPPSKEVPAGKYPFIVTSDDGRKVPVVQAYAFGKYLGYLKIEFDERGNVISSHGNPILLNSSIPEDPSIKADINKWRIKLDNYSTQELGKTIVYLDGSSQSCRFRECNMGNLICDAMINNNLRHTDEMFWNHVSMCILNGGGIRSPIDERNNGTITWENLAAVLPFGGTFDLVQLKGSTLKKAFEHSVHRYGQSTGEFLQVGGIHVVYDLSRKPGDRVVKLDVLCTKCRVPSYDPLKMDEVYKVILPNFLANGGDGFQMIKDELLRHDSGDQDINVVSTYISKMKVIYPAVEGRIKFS
# T2: cell surface CD73 on A375 cells (Homo sapiens, UniProt P21589)
# T2 construct: endogenous in cells; host or cells: A375
# T2 sequence (P21589 27-549): T1 sequence (P21589 27-549)
# T3: cellular CD73 on A375 cells (Homo sapiens, UniProt P21589)
# T3 construct: endogenous in cells; host or cells: A375
# T3 sequence (P21589 27-549): T1 sequence (P21589 27-549)
# T4: cellular CD73 on MDA-MB-231 cells (Homo sapiens, UniProt P21589)
# T4 construct: endogenous in cells; host or cells: MDA-MB-231
# T4 sequence (P21589 27-549): T1 sequence (P21589 27-549)
# T5: CD73 on the cell surface of MDA-MB-231 cells (Homo sapiens, UniProt P21589)
# T5 construct: endogenous in cells; host or cells: MDA-MB-231
# T5 sequence (P21589 27-549): T1 sequence (P21589 27-549)
# B1: CL25: chimeric anti-human CD73 monoclonal antibody, murine VH SEQ ID NO:26 and VL SEQ ID NO:27 with human IgG1 Fc (antibody, V domains shown)
# VH: QVQLQQSGAELARPGASVKLSCRASGYTFTSYGLSWVKQRTGQGLEWIGEIYPGSGNTYYNEKFKGKATLTADKSSSTAYMELRSLTSEDSAVYFCARYDYLGSSYGFDYWGQGTTLTVSS
# VL: DIVMTQSHKFMSTSVGDRVSITCKASQDVSTAVAWYQQKPGQSPKLLIYSASYRYNGVPDRFTGSGSGTDFTFTISSVQAEDLAVYYCQQHYNTPYTFGGGTKLEIK
# modifications: human IgG1 Fc constant regions without entry
# Experiments:
# Format in all cases: cell-based
# [1] = molecular target: T1, cell surface CD73 on MDA-MB-231 cells; assay: Binding to cell surface CD73 by flow cytometry (GMFI), MDA-MB-231 cells; conditions: high levels of surface CD73
# Method: (§1) To test the binding of humanized and non-humanized CL25 clones to cell surface CD73, MDA-MB-231 or A375 cells were washed and added to 96-well plates at 5×10^4 cells/well. The cells were stained with the indicated concentration of antibodies for 30 minutes on ice (FIG. 2A and FIG. 2B). Next, the cells were washed and stained using goat anti-mouse secondary conjugated to phycoerythrin (PE) for 30 minutes on ice. The cells were then washed and analyzed by flow cytometry. Geometric mean fluorescence intensity (GMFI) of CD73 staining was graphed (FIG. 2A and FIG. 2B).
# Cells were stained with the indicated concentration of antibodies for 1 hour on ice. Cells were then washed and stained goat anti-mouse secondary conjugated to PE for 30 minute on ice. Cells were then washed and analyzed by flow cytometry. The GMFI of CD73 staining is graphed (FIG. 13).
# [2] = molecular target: T2, cell surface CD73 on A375 cells; assay: Binding to cell surface CD73 by flow cytometry (GMFI), A375 cells; conditions: moderate levels of surface CD73
# Method: as §1
# [3] = molecular target: T3, cellular CD73 on A375 cells; assay: Cellular CD73 inhibition (AMP-Glo), A375 cells; conditions: 100 μM AMP, 3 hours
# Method: To measure ability of anti-CD73 antibody to inhibit CD73 activity on cells, A375 and MDA-MB-231 cells were washed with serum free RPMI media (ThermoFisher) and plated in 96-well plates at a concentration of 8×10^4 cells/well for A375 or 1×10^4 cells/well for MDA-MB-231. The cells were incubated with the indicated concentration of antibodies or APCP at 37° C. 5% C02 for 30 minutes (FIG. 3A, FIG. 3B, and FIG. 3C). Next, adenosine monophosphate (AMP) was added to a final concentration of 100 μM and cells were incubated an additional 3 hours at 37° C. 5% CO2. Plates were centrifuged for 1-2 minutes at 300 g and 25 μL of supernatant was transferred into a new 96-well plates. AMP-Glo Assay was used according to the manufacturer's instructions (Promega). Relative luminescence unit (RLU) is directly correlated with the AMP concentration in this assay. Results are depicted in FIG. 3A, FIG. 3B, and FIG. 3C. The ability of 3-[…] to inhibit CD73 activity on cells was evaluated as described in Example 3, above. Results are depicted in FIG. 8A and FIG. 8B.
# [4] = molecular target: T4, cellular CD73 on MDA-MB-231 cells; assay: Cellular CD73 inhibition (AMP-Glo), MDA-MB-231 cells; conditions: 100 μM AMP, 3 hours
# Method: To measure ability of anti-CD73 antibody to inhibit CD73 activity on cells, A375 and MDA-MB-231 cells were washed with serum free RPMI media (ThermoFisher) and plated in 96-well plates at a concentration of 8×10^4 cells/well for A375 or 1×10^4 cells/well for MDA-MB-231. The cells were incubated with the indicated concentration of antibodies or APCP at 37° C. 5% C02 for 30 minutes (FIG. 3A, FIG. 3B, and FIG. 3C). Next, adenosine monophosphate (AMP) was added to a final concentration of 100 μM and cells were incubated an additional 3 hours at 37° C. 5% CO2. Plates were centrifuged for 1-2 minutes at 300 g and 25 μL of supernatant was transferred into a new 96-well plates. AMP-Glo Assay was used according to the manufacturer's instructions (Promega). Relative luminescence unit (RLU) is directly correlated with the AMP concentration in this assay. Results are depicted in FIG. 3A, FIG. 3B, and FIG. 3C. […] Results are depicted in FIG. 8A and FIG. 8B. […] Cells were incubated with the indicated concentration of antibodies or APCP at 37° C. 5% CO2 for 30 minutes. Next, AMP was added to a final concentration of 100 μM and cells were incubated an additional 3 hours at 37° C. 5% CO2. Plates were centrifuged for 1-2 minutes at 300 g and 25 μL of supernatant was transferred into a new 96-well plates. AMP-Glo Assay was used according to the manufacturer's instructions. […]
# [5] = molecular target: T5, CD73 on the cell surface of MDA-MB-231 cells; assay: CD73 cell surface levels after 24 hour antibody treatment; conditions: 10 μg/mL antibody
# Method: Indicated antibodies were added at a final concentration of 10 μg/mL and plates were incubated at 37° C. 5% CO2 for 24 hours. Cells were recovered using Versene and transferred to new 96-well plates. Cells were washed and stained for 30 minutes on ice with 10 μg/mL of non-competing antibody directly conjugated to Dy650. Cells were washed and analyzed by flow cytometry. CD73 cell surface receptor density was determined by Antibody Binding Capacity (ABC) using Quantum Simply Cellular beads.
molecule,measurement,setting,value
B1,cell binding (GMFI),[1],high potency binding
same,cell binding (GMFI),[2],high potency binding
same,cellular CD73 inhibition,[3],good potency
same,cellular CD73 inhibition,[4],good potency
same,level of CD73 on the cell surface,[5],decreased the levels of cell surface CD73
